Numbering of substitutions follows the chain as printed. Names may count otherwise.
Target: T1, PUF4 RNA-binding domain (Saccharomyces cerevisiae, UniProt P25339 537-888)
T1 sequence: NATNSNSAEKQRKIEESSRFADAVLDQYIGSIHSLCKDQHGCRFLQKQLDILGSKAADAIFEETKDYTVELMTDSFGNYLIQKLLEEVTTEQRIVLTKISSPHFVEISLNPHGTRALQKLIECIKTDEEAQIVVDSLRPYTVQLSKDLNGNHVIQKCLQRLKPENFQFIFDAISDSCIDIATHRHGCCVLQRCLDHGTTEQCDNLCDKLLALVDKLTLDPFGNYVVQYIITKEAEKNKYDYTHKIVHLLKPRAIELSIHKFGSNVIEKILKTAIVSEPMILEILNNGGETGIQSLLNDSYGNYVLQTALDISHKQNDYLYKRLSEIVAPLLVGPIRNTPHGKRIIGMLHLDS
Assay: Mg; RNA-MaP; 20 mM Na-HEPES pH 7.4, 30 mM KOAc, 0.75 mM MgCl2, 0.1% Tween-20, 5% glycerol, 0.1 mg/mL BSA, 2 mM DTT; 25 C; 0.0125-409.6 nM protein
Details: tags: N-His6-TEV cleaved; C-SNAP kept, Cy3B-labelled; label: tethered on chip by stalled RNA polymerase

UCUCUUUGUACUCUCUUCUCUU (ssRNA) [Ic_S1_P5E.1_K5.1_C5.1_H5.1_A5.1_[T5C]_[A7C]_F5.1_[T9C]_[A10T]_T5.1]
Kd: 295 nM

UCUCUUUGUACGCCCAUCUCUU (ssRNA) [Ic_S1_P5E.1_K5.1_C5.1_H5.1_A5.1_[T5C]_[T6G]_[A7C]_F5.1_[T8C]_[T9C]_T5.1]
Kd: 564 nM

UCUCUUUGUAUUCCUCUCUCUU (ssRNA) [Ic_S1_P5E.1_K5.1_C5.1_H5.1_A5.1_[A7C]_F5.1_[T8C]_[A10C]_T5.1]
Kd: 132 nM

UCUCUUUGUAACGUCUUCUCUU (ssRNA) [Ic_S1_P5E.1_K5.1_C5.1_H5.1_A5.1_[T5A]_[T6C]_[A7G]_F5.1_[T9C]_[A10T]_T5.1]
Kd: 2100 nM

UCUCUUAGUAUGUAUCUCUU (ssRNA) [Ib_S1_P3E.1_K3.1_C3.1_H3.1_[T1A]_A3.1_[A6G]_F3.1_T3.1]
Kd: 381 nM

UCUCUUUGUACUCUAUUCUCUU (ssRNA) [Ic_S1_P5E.1_K5.1_C5.1_H5.1_A5.1_[T5C]_[A7C]_F5.1_[T9A]_[A10T]_T5.1]
Kd: 3.85 nM

UCUCUUUGUACAUUCGUCUCUU (ssRNA) [Ic_S1_P5E.1_K5.1_C5.1_H5.1_A5.1_[T5C]_[T6A]_[A7T]_F5.1_[T9C]_[A10G]_T5.1]
Kd: 9.95 nM

B1: Ic_S2_P3E.1_K3.1_C3.1_H3.1_A3.1_[T5G]_[A6C]_F3.1_[T7G]_[A8T]_T3.1 (ssRNA)
RNA: UUUGAUUAAUAUGAUAUCGUUCUUUCUUGUAGCGUUUCUUUCUCGAUAUCAUAUUAAUCUUU
Kd: 163 nM

B2: Ic_S2_P3E.1_K3.1_C3.1_H3.1_A3.1_[T5C]_[A6G]_F3.1_[T7C]_[A8C]_T3.1 (ssRNA)
RNA: B1 RNA with G32C, C33G, G34C, U35C
Kd: 126 nM

B3: Ic_S2_P3E.1_K3.1_C3.1_H3.1_A3.1_[T5G]_[A6T]_F3.1_[T7G]_[A8C]_T3.1 (ssRNA)
RNA: B1 RNA with C33U, U35C
Kd: 390 nM

B4: Ic_S2_P3E.1_K3.1_C3.1_H3.1_A3.1_[T5C]_[A6C]_F3.1_[T7G]_[A8T]_T3.1 (ssRNA)
RNA: B1 RNA with G32C
Kd: 55.6 nM

B5: Ic_S2_P3E.1_K3.1_C3.1_H3.1_A3.1_[T5G]_[A6T]_F3.1_[A8C]_T3.1 (ssRNA)
RNA: B1 RNA with C33U, G34U, U35C
Kd: 191 nM

B6: Ic_S2_P3E.1_K3.1_C3.1_H3.1_A3.1_[T5C]_[A6C]_F3.1_[T7C]_[A8T]_T3.1 (ssRNA)
RNA: B1 RNA with G32C, G34C
Kd: 12.6 nM

B7: Ic_S2_P3E.1_K3.1_C3.1_H3.1_A3.1_[T5C]_[A6C]_F3.1_[T7A]_[A8C]_T3.1 (ssRNA)
RNA: B1 RNA with G32C, G34A, U35C
Kd: 81.3 nM

B8: Ic_S2_P3E.1_K3.1_C3.1_H3.1_A3.1_[T5C]_[A6C]_F3.1_[T7A]_T3.1 (ssRNA)
RNA: B1 RNA with G32C, G34A, U35A
Kd: 30.1 nM

B9: Ic_S2_P3E.1_K3.1_C3.1_H3.1_A3.1_[T5G]_[A6T]_F3.1_[T7C]_T3.1 (ssRNA)
RNA: B1 RNA with C33U, G34C, U35A
Kd: 751 nM

B10: Ic_S2_P3E.1_K3.1_C3.1_H3.1_A3.1_[T5G]_[A6T]_F3.1_[T7C]_[A8T]_T3.1 (ssRNA)
RNA: B1 RNA with C33U, G34C
Kd: 70.3 nM

B11: Ic_S2_P3E.1_K3.1_C3.1_H3.1_A3.1_[T5C]_[A6C]_F3.1_[A8T]_T3.1 (ssRNA)
RNA: B1 RNA with G32C, G34U
Kd: 7.54 nM

B12: Ic_S2_P3E.1_K3.1_C3.1_H3.1_A3.1_[T5G]_[A6C]_F3.1_[A8C]_T3.1 (ssRNA)
RNA: B1 RNA with G34U, U35C
Kd: 181 nM

B13: Ic_S2_P3E.1_K3.1_C3.1_H3.1_A3.1_[T5G]_[A6T]_F3.1_[T7G]_[A8T]_T3.1 (ssRNA)
RNA: B1 RNA with C33U
Kd: 105 nM

B14: Ic_S2_P3E.1_K3.1_C3.1_H3.1_A3.1_[T5G]_[A6C]_F3.1_[T7C]_[A8C]_T3.1 (ssRNA)
RNA: B1 RNA with G34C, U35C
Kd: 526 nM

B15: Ic_S2_P3E.1_K3.1_C3.1_H3.1_A3.1_[T5G]_[A6T]_F3.1_[T7C]_[A8G]_T3.1 (ssRNA)
RNA: B1 RNA with C33U, G34C, U35G
Kd: 436 nM

B16: Ic_S2_P3E.1_K3.1_C3.1_H3.1_A3.1_[T5G]_[A6C]_F3.1_[T7C]_[A8G]_T3.1 (ssRNA)
RNA: B1 RNA with G34C, U35G
Kd: 996 nM

B17: Ic_S2_P3E.1_K3.1_C3.1_H3.1_A3.1_[T5G]_[A6C]_F3.1_[A8T]_T3.1 (ssRNA)
RNA: B1 RNA with G34U
Kd: 18.6 nM

B18: Ic_S2_P3E.1_K3.1_C3.1_H3.1_A3.1_[T5C]_[A6T]_F3.1_[T7A]_[A8T]_T3.1 (ssRNA)
RNA: B1 RNA with G32C, C33U, G34A
Kd: 3.82 nM

B19: Ic_S2_P3E.1_K3.1_C3.1_H3.1_A3.1_[T5C]_[A6T]_F3.1_[T7A]_[A8G]_T3.1 (ssRNA)
RNA: B1 RNA with G32C, C33U, G34A, U35G
Kd: 692 nM

B20: Ic_S2_P3E.1_K3.1_C3.1_H3.1_A3.1_[T5C]_[A6T]_F3.1_[T7A]_[A8C]_T3.1 (ssRNA)
RNA: B1 RNA with G32C, C33U, G34A, U35C
Kd: 47 nM

B21: Ic_S2_P3E.1_K3.1_C3.1_H3.1_A3.1_[T5C]_[A6T]_F3.1_[T7C]_[A8C]_T3.1 (ssRNA)
RNA: B1 RNA with G32C, C33U, G34C, U35C
Kd: 126 nM

B22: Ic_S2_P3E.1_K3.1_C3.1_H3.1_A3.1_[T5C]_[A6G]_F3.1_[A8T]_T3.1 (ssRNA)
RNA: B1 RNA with G32C, C33G, G34U
Kd: 14.5 nM

B23: Ic_S2_P3E.1_K3.1_C3.1_H3.1_A3.1_[T5C]_[A6C]_F3.1_[T7A]_[A8T]_T3.1 (ssRNA)
RNA: B1 RNA with G32C, G34A
Kd: 3.72 nM

B24: Ic_S2_P3E.1_K3.1_C3.1_H3.1_A3.1_[T5G]_[A6C]_F3.1_[T7C]_[A8T]_T3.1 (ssRNA)
RNA: B1 RNA with G34C
Kd: 63.9 nM

B25: Ic_S2_P3E.1_K3.1_C3.1_H3.1_A3.1_[T5C]_[A6C]_F3.1_[T7C]_[A8G]_T3.1 (ssRNA)
RNA: B1 RNA with G32C, G34C, U35G
Kd: 259 nM

B26: Ic_S2_P3E.1_K3.1_C3.1_H3.1_A3.1_[T5G]_[A6T]_F3.1_[T7A]_[A8T]_T3.1 (ssRNA)
RNA: B1 RNA with C33U, G34A
Kd: 27.7 nM

B27: Ic_S2_P3E.1_K3.1_C3.1_H3.1_A3.1_[T5C]_[A6G]_F3.1_[T7G]_[A8C]_T3.1 (ssRNA)
RNA: B1 RNA with G32C, C33G, U35C
Kd: 536 nM

B28: Ic_S2_P3E.1_K3.1_C3.1_H3.1_A3.1_[T5G]_[A6C]_F3.1_[T7A]_T3.1 (ssRNA)
RNA: B1 RNA with G34A, U35A
Kd: 506 nM

B29: Ic_S2_P3E.1_K3.1_C3.1_H3.1_A3.1_[T5C]_[A6T]_F3.1_[T7A]_T3.1 (ssRNA)
RNA: B1 RNA with G32C, C33U, G34A, U35A
Kd: 33.9 nM

B30: Ic_S2_P3E.1_K3.1_C3.1_H3.1_A3.1_[T5G]_[A6C]_F3.1_[T7A]_[A8G]_T3.1 (ssRNA)
RNA: B1 RNA with G34A, U35G
Kd: 754 nM

B31: Ic_S2_P3E.1_K3.1_C3.1_H3.1_A3.1_[T5G]_[A6C]_F3.1_[A8G]_T3.1 (ssRNA)
RNA: B1 RNA with G34U, U35G
Kd: 156 nM

B32: Ic_S2_P3E.1_K3.1_C3.1_H3.1_A3.1_[T5G]_[A6T]_F3.1_[T7A]_T3.1 (ssRNA)
RNA: B1 RNA with C33U, G34A, U35A
Kd: 650 nM

B33: Ic_S2_P3E.1_K3.1_C3.1_H3.1_A3.1_[T5C]_[A6T]_F3.1_[T7C]_[A8T]_T3.1 (ssRNA)
RNA: B1 RNA with G32C, C33U, G34C
Kd: 10.7 nM

B34: Ic_S2_P3E.1_K3.1_C3.1_H3.1_A3.1_[T5G]_[A6T]_F3.1_[A8T]_T3.1 (ssRNA)
RNA: B1 RNA with C33U, G34U
Kd: 23.2 nM

B35: Ic_S2_P3E.1_K3.1_C3.1_H3.1_A3.1_[T5C]_[A6C]_F3.1_[A8G]_T3.1 (ssRNA)
RNA: B1 RNA with G32C, G34U, U35G
Kd: 17.7 nM

B36: Ic_S2_P3E.1_K3.1_C3.1_H3.1_A3.1_[T5C]_[A6T]_F3.1_[T7G]_[A8G]_T3.1 (ssRNA)
RNA: B1 RNA with G32C, C33U, U35G
Kd: 1390 nM

B37: Ic_S2_P3E.1_K3.1_C3.1_H3.1_A3.1_[T5C]_[A6T]_F3.1_[T7G]_[A8C]_T3.1 (ssRNA)
RNA: B1 RNA with G32C, C33U, U35C
Kd: 381 nM

UCUCUUUGUAGUAAUUUCUCUU (ssRNA) [Ic_S1_P5E.1_K5.1_C5.1_H5.1_A5.1_[T5G]_F5.1_[T8A]_[A10T]_T5.1]
Kd: 1270 nM

UCUCUUUAUACAUAUCUCUU (ssRNA) [Ib_S1_P3E.1_K3.1_C3.1_H3.1_[G2A]_A3.1_[T5C]_F3.1_T3.1]
Kd: 900 nM

UCUCUUUGUACAAUGGUCUCUU (ssRNA) [Ic_S1_P5E.1_K5.1_C5.1_H5.1_A5.1_[T5C]_[T6A]_F5.1_[T9G]_[A10G]_T5.1]
Kd: 12.5 nM

UCUCUUUCUAUUUAUCUCUU (ssRNA) [Ib_S1_P3E.1_K3.1_C3.1_H3.1_[G2C]_A3.1_[A6T]_F3.1_T3.1]
Kd: > 2300 nM

UCUCUUUGUAUGUCAUUCUCUU (ssRNA) [Ic_S1_P5E.1_K5.1_C5.1_H5.1_A5.1_[T6G]_[A7T]_F5.1_[T8C]_[T9A]_[A10T]_T5.1]
Kd: 297 nM

UCUCUUUGUAGCCCAUUCUCUU (ssRNA) [Ic_S1_P5E.1_K5.1_C5.1_H5.1_A5.1_[T5G]_[T6C]_[A7C]_F5.1_[T8C]_[T9A]_[A10T]_T5.1]
Kd: 1530 nM

UCUCUUUGUAACUAUCUCUCUU (ssRNA) [Ic_S1_P5E.1_K5.1_C5.1_H5.1_A5.1_[T5A]_[T6C]_[A7T]_F5.1_[T8A]_[A10C]_T5.1]
Kd: 113 nM

UCUCUUUGUACUGCAUUCUCUU (ssRNA) [Ic_S1_P5E.1_K5.1_C5.1_H5.1_A5.1_[T5C]_[A7G]_F5.1_[T8C]_[T9A]_[A10T]_T5.1]
Kd: 534 nM

UCUCUUUGUAAAUUAAUCUCUU (ssRNA) [Ic_S1_P5E.1_K5.1_C5.1_H5.1_A5.1_[T5A]_[T6A]_[A7T]_F5.1_[T9A]_T5.1]
Kd: 1.57 nM

UCUCUUUGUAACCUUUUCUCUU (ssRNA) [Ic_S1_P5E.1_K5.1_C5.1_H5.1_A5.1_[T5A]_[T6C]_[A7C]_F5.1_[A10T]_T5.1]
Kd: 49.8 nM

UCUCUUUGUAUAUCCUUCUCUU (ssRNA) [Ic_S1_P5E.1_K5.1_C5.1_H5.1_A5.1_[T6A]_[A7T]_F5.1_[T8C]_[T9C]_[A10T]_T5.1]
Kd: 24 nM

UCUCUUUGUAUCAGCCUCUCUU (ssRNA) [Ic_S1_P5E.1_K5.1_C5.1_H5.1_A5.1_[T6C]_F5.1_[T8G]_[T9C]_[A10C]_T5.1]
Kd: 918 nM

UCUCUUAGUAUCUAUCUCUU (ssRNA) [Ib_S1_P3E.1_K3.1_C3.1_H3.1_[T1A]_A3.1_[A6C]_F3.1_T3.1]
Kd: > 2300 nM

UCUCUUUGUACCCCGGUCUCUU (ssRNA) [Ic_S1_P5E.1_K5.1_C5.1_H5.1_A5.1_[T5C]_[T6C]_[A7C]_F5.1_[T8C]_[T9G]_[A10G]_T5.1]
Kd: > 2300 nM

UCUCUUUGUAUGUAAAUCUCUU (ssRNA) [Ic_S1_P5E.1_K5.1_C5.1_H5.1_A5.1_[T6G]_[A7T]_F5.1_[T8A]_[T9A]_T5.1]
Kd: 92.9 nM

UCUCUUUCUAAAUAUCUCUU (ssRNA) [Ib_S1_P3E.1_K3.1_C3.1_H3.1_[G2C]_A3.1_[T5A]_F3.1_T3.1]
Kd: > 2300 nM
